± gives the uncertainty stated by the source.
Assay: self-splicing fitness, log relative to wild type (ln ratio); higher = more splicing; Tetrahymena group I intron in knt gene, E. coli kanamycin selection, DiMSum; sequences stand for … in CUCUCU…GGAGGGAAAAGUUAUCAGGCAUGCACCUGGUAGCUAGUCUUUAAACCAAUAGAUUGCAUCGGUUUAAAAGGCAAGACCGUCAAAUUGCGGGAAAGGGGUCAACAGCCGUUCAGUACCAAGUCUCAGGGGAAACUUUGAGAUGGCCUUGCAAAGGGUAUGGUAAUAAGCUGACGGACAUGGUCCUAACCACGCAGCCAAGUCCUAAGUCAACAGAUCUUCUGUUGAUAUGGAUGCAGUUCACAGACUAAAUGUCGGUCGGGGAAGAUGUAUUCUUCUCAUAAGAUAUAGUCGGACCUCUCCUUAAUGGGAGCUAGCGGAUGAAGUGAUGCAACACUGGAGCCGCUGGGAACUAAUUUGUAUGCGAAAGUAUAUUGAUUAGUUUUGGAGUACUCGUGGUCG
Summary of the method: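 A randomised library covering all eight P1ex-region intron nucleotides was built with the intron in the knt kanamycin-resistance gene on pET-22b(+) and held in E. coli BL21(DE3). Cells were grown overnight at 37°C or 30°C on LB agar, with or without 25 μg/mL kanamycin, plus 100 μg/mL carbenicillin, 50 μM IPTG and 0.2% rhamnose, and pooled colonies were amplicon-sequenced on an Illumina HiSeq 2500. DiMSum fitness is the error-weighted combination of wild-type-normalised replicate fold changes, kanamycin versus none.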

Sequence | self-splicing fitness (ln) (30 °C) | self-splicing fitness (ln) (37 °C)
GACGAGCAAUAUUACGCGCA | -1.71 ± 0.23 | -1.3 ± 0.21
GACGAGCAAUAUUACGCGCU | -3.04 ± 0.48 | -2.87 ± 0.31
GACGAGCAAUAUUACGCUGU | -3.17 ± 0.3 | -2.9 ± 0.33
GACGAGCAAUAUUACGGACA | -1.57 ± 0.43 | -0.484 ± 0.14
GACGAGCAAUAUUACGGAUG | -2.45 ± 0.24 | -1.12 ± 0.16
GACGAGCAAUAUUACGGCGG | -2.65 ± 0.33 | -2.42 ± 0.29
GACGAGCAAUAUUACGGCUU | -1.43 ± 0.11 | -0.332 ± 0.14
GACGAGCAAUAUUACGGGCU | -3.61 ± 0.2 | -2.21 ± 0.19
GACGAGCAAUAUUACGGUUA | -1.65 ± 0.12 | -0.972 ± 0.1
GACGAGCAAUAUUACGUUCG | -4.1 ± 0.24 | -2.24 ± 0.23
GACUAGCAAUAUUACGAAAA | -2.41 ± 0.25 | -0.685 ± 0.15
GACUAGCAAUAUUACGAAAC | -1.3 ± 0.12 | -0.114 ± 0.13
GACUAGCAAUAUUACGAAUA | -2.54 ± 0.24 | -0.356 ± 0.21
GACUAGCAAUAUUACGAGAC | -3.56 ± 0.43 | -1.76 ± 0.27
GACUAGCAAUAUUACGAUUC | -0.598 ± 0.065 | -0.35 ± 0.072
GACUAGCAAUAUUACGCAGC | -3.5 ± 0.23 | -2.2 ± 0.31
GACUAGCAAUAUUACGCAUG | -1.24 ± 0.063 | -0.455 ± 0.075
GACUAGCAAUAUUACGCCAC | – | -1.76 ± 0.41
GACUAGCAAUAUUACGCCGU | -2.15 ± 0.11 | -0.995 ± 0.1
GACUAGCAAUAUUACGCCUG | -0.826 ± 0.12 | -0.091 ± 0.14
GACUAGCAAUAUUACGCGUC | -3.14 ± 0.16 | -2.78 ± 0.23
GACUAGCAAUAUUACGCUAC | -1.81 ± 0.16 | -1.33 ± 0.2
GACUAGCAAUAUUACGCUCG | -1.01 ± 0.14 | -0.0622 ± 0.19
GACUAGCAAUAUUACGCUCU | -1.87 ± 0.12 | -0.12 ± 0.14
GACUAGCAAUAUUACGGCCA | -0.241 ± 0.16 | -0.327 ± 0.26
GACUAGCAAUAUUACGGCCG | -0.632 ± 0.13 | -0.578 ± 0.16

Sequence | self-splicing fitness (ln) (30 °C) | self-splicing fitness (ln) (37 °C)
GACUAGCAAUAUUACGGGUA | -0.752 ± 0.076 | -0.669 ± 0.078
GACUAGCAAUAUUACGGUCA | -1.13 ± 0.27 | -1.36 ± 0.26
GACUAGCAAUAUUACGGUUC | -3.18 ± 0.17 | -2.7 ± 0.32
GACUAGCAAUAUUACGGUUG | -1.25 ± 0.072 | -0.449 ± 0.092
GACUAGCAAUAUUACGUACC | -1.65 ± 0.15 | -0.961 ± 0.14
GACUAGCAAUAUUACGUACG | -0.653 ± 0.066 | -0.585 ± 0.098
GACUAGCAAUAUUACGUAGA | -0.815 ± 0.077 | -1.17 ± 0.097
GACUAGCAAUAUUACGUAUG | -1.82 ± 0.068 | -1.33 ± 0.091
GACUAGCAAUAUUACGUCUG | -3.86 ± 0.25 | -1.57 ± 0.23
GACUAGCAAUAUUACGUUAA | -2.16 ± 0.12 | -0.716 ± 0.11
GACUAGCAAUAUUACGUUAU | -2.4 ± 0.098 | -1.28 ± 0.11
GACUAGCAAUAUUACGUUCG | -3.18 ± 0.22 | -0.787 ± 0.13
GACUAGCAAUAUUACGUUUG | -2.63 ± 0.13 | -2.46 ± 0.2
GAGAAGCAAUAUUACGAACU | -0.774 ± 0.085 | -0.288 ± 0.092
GAGAAGCAAUAUUACGAAUA | -1.88 ± 0.25 | -0.917 ± 0.2
GAGAAGCAAUAUUACGACCU | 0.392 ± 0.1 | -0.128 ± 0.096
GAGAAGCAAUAUUACGAUCU | -1.66 ± 0.097 | -0.515 ± 0.095
GAGAAGCAAUAUUACGAUGA | -1.04 ± 0.12 | -0.334 ± 0.11
GAGAAGCAAUAUUACGAUUA | -0.739 ± 0.099 | 0.245 ± 0.081
GAGAAGCAAUAUUACGCAAA | -3.07 ± 0.14 | -1.8 ± 0.15
GAGAAGCAAUAUUACGCCGU | -2.18 ± 0.21 | -1.89 ± 0.21
GAGAAGCAAUAUUACGCGCC | -1.88 ± 0.33 | -0.596 ± 0.23
GAGAAGCAAUAUUACGCGUC | -3.46 ± 0.34 | -2.31 ± 0.33
GAGAAGCAAUAUUACGCUAC | -3.38 ± 0.18 | -1.58 ± 0.18
GAGAAGCAAUAUUACGCUCU | -3.26 ± 0.35 | -2.25 ± 0.44
GAGAAGCAAUAUUACGGACU | -0.326 ± 0.091 | -0.101 ± 0.11

Sequence | self-splicing fitness (ln) (30 °C) | self-splicing fitness (ln) (37 °C)
GAGAAGCAAUAUUACGGCAU | -0.391 ± 0.07 | 0.567 ± 0.11
GAGAAGCAAUAUUACGGCUC | – | -2.07 ± 0.21
GAGAAGCAAUAUUACGGGUG | -1.72 ± 0.15 | -1.88 ± 0.14
GAGAAGCAAUAUUACGGUCA | -0.263 ± 0.1 | 0.383 ± 0.12
GAGAAGCAAUAUUACGUAAA | -2.16 ± 0.14 | -0.647 ± 0.17
GAGAAGCAAUAUUACGUCAU | -2.57 ± 0.097 | -0.577 ± 0.089
GAGAAGCAAUAUUACGUCGA | -1.54 ± 0.13 | -1.09 ± 0.14
GAGAAGCAAUAUUACGUCUC | -4.38 ± 0.46 | -2.39 ± 0.24
GAGAAGCAAUAUUACGUGAU | -1.81 ± 0.084 | -0.801 ± 0.11
GAGAAGCAAUAUUACGUGUC | -3.95 ± 0.27 | -2.1 ± 0.33
GAGAAGCAAUAUUACGUUCA | -0.919 ± 0.2 | -0.374 ± 0.22
GAGAAGCAAUAUUACGUUCC | -3.57 ± 0.32 | -1.65 ± 0.29
GAGCAGCAAUAUUACGAAAA | -2.68 ± 0.39 | –
GAGCAGCAAUAUUACGAAUU | -1.95 ± 0.14 | -1.45 ± 0.15
GAGCAGCAAUAUUACGACGC | 0.00947 ± 0.079 | 0.534 ± 0.1
GAGCAGCAAUAUUACGAGAC | -2.97 ± 0.3 | -0.985 ± 0.2
GAGCAGCAAUAUUACGAGGC | -2.67 ± 0.47 | –
GAGCAGCAAUAUUACGCGUC | -3.39 ± 0.29 | -2.8 ± 0.3
GAGCAGCAAUAUUACGCGUU | -3.08 ± 0.12 | -1.32 ± 0.12
GAGCAGCAAUAUUACGCUAA | -1.3 ± 0.15 | -0.144 ± 0.18
GAGCAGCAAUAUUACGCUCG | -2.11 ± 0.33 | -0.285 ± 0.22
GAGCAGCAAUAUUACGGAGU | -3.32 ± 0.26 | -3.07 ± 0.4
GAGCAGCAAUAUUACGGCCC | -1.51 ± 0.15 | -1.09 ± 0.19
GAGCAGCAAUAUUACGGCCG | -1.05 ± 0.17 | -0.59 ± 0.27
GAGCAGCAAUAUUACGGGCC | -2.94 ± 0.33 | -1.21 ± 0.29

— the supplement of paper PMC7877785
